As a reminder, the Kd is the constant that tells how readily two partners part at equilibrium. Lower therefore signals a tighter complex.

This passage reports fold weaker than the affinity to rat TIMP-1 and Kd results from US20040105862A1.

Test [1] deals with mouse TIMP-1 (mouse) (UniProt P12032). The test can be described thus: BIAcore SPR. (In general: In SPR one partner is held on a chip, and binding of the other changes the refractive index at the surface.)
Test [2] has the same target. The test can be described thus: BIAcore SPR, immobilised mouse TIMP-1.

Sequence of mouse TIMP-1 (mouse) (P12032 25-205 limits assumed): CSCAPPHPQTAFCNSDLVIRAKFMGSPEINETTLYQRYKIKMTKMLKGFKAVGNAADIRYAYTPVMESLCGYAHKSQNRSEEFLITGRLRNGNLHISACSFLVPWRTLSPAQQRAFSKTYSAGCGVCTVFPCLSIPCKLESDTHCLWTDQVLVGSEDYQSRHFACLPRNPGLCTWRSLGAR

B1: MS-BW-17-1 Fab (Fab, V domains shown)
VH: QVQLVQSGAEVKKPGESLKISCKGSGYSFTSYWIGWVRQMPGKGLEWMGIIYPGDSDTRYSPSFQGQVTISADKSISTAYLQWSSLKASDTAMYYCARLTNYFDSIYYDHWGQGTLVTVSS
VL: DIALTQPASVSGSPGQSITISCTGTSSDVGGYNYVSWYQQHPGKAPKLMIYDVSNRPSGVSNRFSGSKSGNTASLTISGLQAEDEADYYCQAFDVAPNGKVFGGGTKLTVLG
In the test with mouse TIMP-1 (mouse) [1], B1 returned a fold weaker than the affinity to rat TIMP-1 of 225 fold. The same molecule had a Kd with mouse TIMP-1 (mouse) [2] of 180 nM.
